Source: the supplement of paper PMC11246515
± gives the standard deviation of the averaged measurements.

Test: total protein half-life in vivo (active degradation + dilution); higher = more stable protein
[1] = E. coli NCM3722 delta-clpP delta-lon delta-hslV, growth: N-lim chemostat, doubling time 6 h
[2] = E. coli NCM3722 delta-clpP, growth: N-lim chemostat, doubling time 6 h
[3] = E. coli NCM3722 delta-hslV, growth: N-lim chemostat, doubling time 6 h
[4] = E. coli NCM3722 delta-lon, growth: N-lim chemostat, doubling time 6 h
[5] = E. coli NCM3722 delta-smpB, growth: N-lim chemostat, doubling time 6 h
[6] = wild type E. coli NCM3722, growth: C-lim chemostat, doubling time 3 h
[7] = wild type E. coli NCM3722, growth: C-lim chemostat, doubling time 6 h
[8] = wild type E. coli NCM3722, growth: C-lim chemostat, doubling time 12 h
[9] = wild type E. coli NCM3722, growth: N-lim chemostat, doubling time 6 h
[10] = wild type E. coli NCM3722, growth: N-lim chemostat, doubling time 12 h
[11] = wild type E. coli NCM3722, growth: P-lim chemostat, doubling time 6 h
[12] = wild type E. coli NCM3722, growth: P-lim chemostat, doubling time 12 h

| Sequence | total protein half-life in vivo [1] | total protein half-life in vivo [2] | total protein half-life in vivo [3] | total protein half-life in vivo [4] | total protein half-life in vivo [5] | total protein half-life in vivo [6] | total protein half-life in vivo [7] | total protein half-life in vivo [8] | total protein half-life in vivo [9] | total protein half-life in vivo [10] | total protein half-life in vivo [11] | total protein half-life in vivo [12] |
| --- | --- | --- | --- | --- | --- | --- | --- | --- | --- | --- | --- | --- |
| MKQLTILGSTGSIGCSTLDVVRHNPEHFRVVALVAGKNVTRMVEQCLEFSPRYAVMDDEASAKLLKTMLQQQGSRTEVLSGQQAACDMAALEDVDQVMAAIVGAAGLLPTLAAIRAGKTILLANKESLVTCGRLFMDAVKQSKAQLLPVDSEHNAIFQSLPQPIQHNLGYADLEQNGVVSILLTGSGGPFRETPLRDLATMTPDQACRHPNWSMGRKISVDSATMMNKGLEYIEARWLFNASASQMEVLIHPQSVIHSMVRYQDGSVLAQLGEPDMRTPIAHTMAWPNRVNSGVKPLDFCKLSALTFAAPDYDRYPCLKLAMEAFEQGQAATTALNAANEITVAAFLAQQIRFTDIAALNLSVLEKMDMREPQCVDDVLSVDANAREVARKEVMRLAS | 4.22 ± 0.36 h | 3.69 ± 0.044 h | 4.05 ± 0.23 h | 3.93 ± 0.36 h | 3.84 ± 0.34 h | 2.81 ± 0.21 h | 5.32 ± 0.24 h | 9.19 ± 0.66 h | 3.64 ± 0.13 h | 5.81 ± 0.34 h | 5.88 ± 0.068 h | 9.74 ± 0.61 h |
| MKQVCVLGNGQLGRMLRQAGEPLGIAVWPVGLDAEPAAVPFQQSVITAEIERWPETALTRELARHPAFVNRDVFPIIADRLTQKQLFDKLHLPTAPWQLLAERSEWPAVFDRLGELAIVKRRTGGYDGRGQWRLRANETEQLPAECYGECIVEQGINFSGEVSLVGARGFDGSTVFYPLTHNLHQDGILRTSVAFPQANAQQQAQAEEMLSAIMQELGYVGVMAMECFVTPQGLLINELAPRVHNSGHWTQNGASISQFELHLRAITDLPLPQPVVNNPSVMINLIGSDVNYDWLKLPLVHLHWYDKEVRPGRKVGHLNLTDSDTSRLTATLEALIPLLPPEYASGVIWAQSKFG | 5.64 ± 0.49 h | 4.96 ± 1.2 h | 3.96 ± 0.012 h | – | 4.51 ± 0.38 h | 3.19 ± 0.41 h | 6.83 ± 1.3 h | 9.39 ± 0.78 h | 4.393 ± 0.015 h | 8.59 ± 3.2 h | 6.17 ± 0.59 h | 12.1 ± 0.25 h |
| MKQWIAALLLMLIPGVQAAKPQKVTLMVDDVPVAQVLQALAEQEKLNLVVSPDVSGTVSLHLTDVPWKQALQTVVKSAGLITRQEGNILSVHSIAWQNNNIARQEAEQARAQANLPLENRSITLQYADAGELAKAGEKLLSAKGSMTVDKRTNRLLLRDNKTALSALEQWVAQMDLPVGQVELSAHIVTINEKSLRELGVKWTLADAQHAGGVGQVTTLGSDLSVATATTHVGFNIGRINGRLLDLELSALEQKQQLDIIASPRLLASHLQPASIKQGSEIPYQVSSGESGATSVEFKEAVLGMEVTPTVLQKGRIRLKLHISQNVPGQVLQQADGEVLAIDKQEIETQVEVKSGETLALGGIFTRKNKSGQDSVPLLGDIPWFGQLFRHDGKEDERRELVVFITPRLVSSE | 3.42 ± 1.4 h | – | – | – | – | – | – | 6.11 h | – | 4.56 h | – | 4.33 h |
| MKQYLELMQKVLDEGTQKNDRTGTGTLSIFGHQMRFNLQDGFPLVTTKRCHLRSIIHELLWFLQGDTNIAYLHENNVTIWDEWADENGDLGPVYGKQWRAWPTPDGRHIDQITTVLNQLKNDPDSRRIIVSAWNVGELDKMALAPCHAFFQFYVADGKLSCQLYQRSCDVFLGLPFNIASYALLVHMMAQQCDLEVGDFVWTGGDTHLYSNHMDQTHLQLSREPRPLPKLIIKRKPESIFDYRFEDFEIEGYDPHPGIKAPVAI [P0A884] | 4.71 ± 0.41 h | 4.939 ± 0.04 h | 4.26 ± 0.21 h | 4.54 ± 0.25 h | 4.48 ± 0.38 h | 3.23 ± 0.11 h | 5.59 ± 0.4 h | 10.3 ± 0.11 h | 4.62 ± 0.15 h | 7.94 ± 0.4 h | 5.65 ± 0.14 h | 10.4 ± 2.7 h |
| MKRAVVVFSGGQDSTTCLVQALQQYDEVHCVTFDYGQRHRAEIDVARELALKLGARAHKVLDVTLLNELAVSSLTRDSIPVPDYEPEADGIPNTFVPGRNILFLTLAAIYAYQVKAEAVITGVCETDFSGYPDCRDEFVKALNHAVSLGMAKDIRFETPLMWIDKAETWALADYYGKLDLVRNETLTCYNGFKGDGCGHCAACNLRANGLNHYLADKPTVMAAMKQKTGLR | 4.91 ± 0.072 h | 4.53 ± 0.16 h | 4.47 ± 0.14 h | 5.02 ± 0.59 h | 3.87 ± 0.57 h | 2.6 ± 0.17 h | 5.36 ± 0.46 h | 9.333 ± 0.044 h | 4.84 ± 0.59 h | 7.72 ± 0.73 h | – | 12.4 ± 1.3 h |
| MKREEIADLMAFVVVAEERSFTRAAARLSMAQSALSQIVRRIEERLGLRLLTRTTRSVVPTEAGEHLLSVLGPMLHDIDSAMASLSDLQNRPSGTIRITTVEHAAKTILLPAMRTFLKSHPEIDIQLTIDYGLTDVVSERFDAGVRLGGEMDKDMIAIRIGPDIPMAIVGSPDYFSRRSVPTSVSQLIDHQAINLYLPTSGTANRWRLIRGGREVRVRMEGQLLLNTIDLIIDAAIDGHGLAYLPYDQVERAIKEKKLIRVLDKFTPDLPGYHLYYPHRRHAGSAFSLFIDRLKYKGAV | 5.34 ± 0.45 h | – | > 8 h | 6.34 h | 6.01 ± 1.5 h | 2.929 ± 0.019 h | – | – | 5.238 ± 0.043 h | 11.7 h | 5.36 h | 9.19 ± 3.4 h |
